Target: GST-Trs33, bacterially expressed (S. cerevisiae) (UniProt Q99394)
Assay: pull-down

Sequence of UniProt Q99394 (Q99394 whole entry): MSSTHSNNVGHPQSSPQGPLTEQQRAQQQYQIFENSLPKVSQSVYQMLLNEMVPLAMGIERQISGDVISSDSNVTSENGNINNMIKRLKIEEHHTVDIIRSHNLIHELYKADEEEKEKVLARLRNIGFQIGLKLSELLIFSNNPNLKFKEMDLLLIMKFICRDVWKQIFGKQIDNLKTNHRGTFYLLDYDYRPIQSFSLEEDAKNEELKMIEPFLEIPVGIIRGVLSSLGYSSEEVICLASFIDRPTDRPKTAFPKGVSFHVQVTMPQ

percent co-precipitated: 0.5%
Substance: Trs130-HA, bacterially expressed (from UniProt Q03660 1-1102) (natural protein)
